The record followed here is publication PMC8319846 (Frontiers in Microbiology, 2021).

One experiment has as its target HlgB (Staphylococcus aureus, strain , UniProt P0A077). Nature of the experiment: ELISA. Conditions: both partners purified.
The target in a further experiment is LukD (Staphylococcus aureus, strain , UniProt O54082). Nature of the experiment: ELISA. Conditions: both partners purified.
Another experiment addresses Hlb (Staphylococcus aureus, strain , UniProt P09978). In words: ELISA. Conditions: both partners purified.
Another experiment deals with HlgC (Staphylococcus aureus, strain , UniProt Q07227). Nature of the experiment: ELISA. As to conditions: both partners purified. On the technique in general: An ELISA detects its analyte on a solid surface through an enzyme-linked reagent.
The target of the next experiment is LukE (Staphylococcus aureus, strain , UniProt O54081). In words: ELISA. Conditions: both partners purified.
Another experiment concerns the target LukF (Staphylococcus aureus, strain , UniProt Q5FBD2). Nature of the experiment: ELISA. As to conditions: both partners purified.
The target in the next experiment is HlgA (Staphylococcus aureus, strain , UniProt P0A074). In words: ELISA. Conditions: both partners purified.
Experiment [1] concerns the target native Hla in S. aureus 8325-4 supernatants (Staphylococcus aureus 8325-4 (NCTC 8325 …, UniProt Q2G1X0)). Nature of the experiment: far-Western, overlay or dot blot. Conditions: one partner purified.

Chain of HlgA (P0A074 30-309): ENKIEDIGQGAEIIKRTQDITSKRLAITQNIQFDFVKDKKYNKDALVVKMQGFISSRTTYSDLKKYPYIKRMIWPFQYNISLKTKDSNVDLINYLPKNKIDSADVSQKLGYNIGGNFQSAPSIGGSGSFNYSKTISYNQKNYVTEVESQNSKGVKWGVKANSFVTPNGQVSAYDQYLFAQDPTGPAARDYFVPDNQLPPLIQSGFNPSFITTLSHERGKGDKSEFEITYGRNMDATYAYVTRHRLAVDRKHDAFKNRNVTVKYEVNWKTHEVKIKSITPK
Chain of LukF (P31715 26-323): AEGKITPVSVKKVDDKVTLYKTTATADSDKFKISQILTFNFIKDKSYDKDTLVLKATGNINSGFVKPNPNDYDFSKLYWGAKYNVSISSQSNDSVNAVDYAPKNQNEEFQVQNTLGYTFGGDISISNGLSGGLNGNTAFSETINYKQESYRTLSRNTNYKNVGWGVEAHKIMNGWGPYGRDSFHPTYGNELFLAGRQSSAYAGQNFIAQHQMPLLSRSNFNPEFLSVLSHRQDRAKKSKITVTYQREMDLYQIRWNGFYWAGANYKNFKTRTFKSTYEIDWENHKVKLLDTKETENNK
Chain of Hlb (P09978 35-330): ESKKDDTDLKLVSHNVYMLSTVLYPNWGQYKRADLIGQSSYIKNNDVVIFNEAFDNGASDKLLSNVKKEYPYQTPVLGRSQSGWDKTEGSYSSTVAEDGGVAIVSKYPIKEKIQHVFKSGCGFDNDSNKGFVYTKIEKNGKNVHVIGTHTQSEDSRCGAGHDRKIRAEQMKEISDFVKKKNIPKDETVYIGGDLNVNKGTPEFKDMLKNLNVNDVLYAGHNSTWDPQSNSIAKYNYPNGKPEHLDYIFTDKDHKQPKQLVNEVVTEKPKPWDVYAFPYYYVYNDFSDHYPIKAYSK
Chain of native Hla in S. aureus 8325-4 supernatants (Staphylococcus aureus 8325-4 (Q2G1X0 27-319): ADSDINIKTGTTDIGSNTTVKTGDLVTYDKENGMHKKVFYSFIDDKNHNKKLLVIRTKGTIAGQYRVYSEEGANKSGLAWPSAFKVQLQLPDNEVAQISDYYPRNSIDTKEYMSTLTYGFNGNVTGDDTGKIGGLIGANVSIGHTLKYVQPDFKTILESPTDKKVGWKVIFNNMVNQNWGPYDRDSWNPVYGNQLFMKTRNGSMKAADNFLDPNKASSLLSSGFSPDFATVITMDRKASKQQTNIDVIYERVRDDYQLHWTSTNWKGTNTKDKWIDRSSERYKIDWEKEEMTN
Chain of LukD (O54082 27-327): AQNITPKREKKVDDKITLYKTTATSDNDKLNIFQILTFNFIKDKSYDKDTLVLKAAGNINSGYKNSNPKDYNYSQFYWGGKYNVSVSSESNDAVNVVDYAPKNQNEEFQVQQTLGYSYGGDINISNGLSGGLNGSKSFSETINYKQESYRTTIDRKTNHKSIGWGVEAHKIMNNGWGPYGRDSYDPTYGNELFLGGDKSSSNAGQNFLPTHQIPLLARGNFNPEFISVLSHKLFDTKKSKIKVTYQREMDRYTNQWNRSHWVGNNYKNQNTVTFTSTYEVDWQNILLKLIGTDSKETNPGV
Chain of LukE (O54081 29-314): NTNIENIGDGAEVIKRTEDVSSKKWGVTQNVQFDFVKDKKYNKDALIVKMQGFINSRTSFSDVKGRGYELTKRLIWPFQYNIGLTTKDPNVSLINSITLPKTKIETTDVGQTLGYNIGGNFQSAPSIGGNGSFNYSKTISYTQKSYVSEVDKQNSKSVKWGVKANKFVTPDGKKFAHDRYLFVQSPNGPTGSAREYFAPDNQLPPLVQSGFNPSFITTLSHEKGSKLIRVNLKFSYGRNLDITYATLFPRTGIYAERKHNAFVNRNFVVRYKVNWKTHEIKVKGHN
Chain of HlgC (Q07227 30-315): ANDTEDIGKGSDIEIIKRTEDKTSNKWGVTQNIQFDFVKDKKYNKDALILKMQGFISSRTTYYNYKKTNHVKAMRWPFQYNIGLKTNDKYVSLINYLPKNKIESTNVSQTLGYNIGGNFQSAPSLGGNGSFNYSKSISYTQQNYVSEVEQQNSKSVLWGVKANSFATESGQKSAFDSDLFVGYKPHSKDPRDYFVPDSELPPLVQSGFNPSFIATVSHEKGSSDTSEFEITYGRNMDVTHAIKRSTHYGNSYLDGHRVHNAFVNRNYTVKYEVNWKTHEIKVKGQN
Chain of HlgB (P0A077 26-325): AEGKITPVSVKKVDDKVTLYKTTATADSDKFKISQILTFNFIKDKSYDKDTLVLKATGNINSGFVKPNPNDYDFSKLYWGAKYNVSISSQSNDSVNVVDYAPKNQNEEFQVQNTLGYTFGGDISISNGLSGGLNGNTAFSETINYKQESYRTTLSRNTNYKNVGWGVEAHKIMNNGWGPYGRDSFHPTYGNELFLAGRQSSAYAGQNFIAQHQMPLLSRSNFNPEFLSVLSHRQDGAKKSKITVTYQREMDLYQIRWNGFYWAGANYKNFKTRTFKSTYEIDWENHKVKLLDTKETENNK

B1: YG1 human anti-Hla monoclonal antibody (antibody, V domains shown)
VH: QVQLVQSGAEMQKPGASVKVSCKVTGYALASLSLHWVRQTPGAGLEWLGGLDPGHGETIYAEKLQGRVVMTGDTSTDTAYMQLSSLTSEDTAIYYCASDWLRHGFEFWGQGTTVTVSS
VL: EIVLTQSPATLSVSPGDGATLSCRASQSVSGNLAWYQKKPGQAPRLLIYDTSIRAAGVPPRFSGSGSGTEFTLTISSLQSEDFAVYYCQQYHNLPPLTFGPGTKLEIK
notes: also called YG1 mAb; source: expressed and purified as a full-length human IgG1 antibody
For B1, the binding result in the experiment with HlgB, with LukD, in the experiment with Hlb, with HlgC, with LukE and with LukF was “no binding (tested: 1 μg/ml)” throughout. The binding result is listed as “no binding (tested: 1 μg/ml)” in the experiment with HlgA and “binds” in experiment [1].
